According to paper PMC4057743, “Arabidopsis ABA Receptor RCAR1/PYL9 Interacts with an R2R3-Type MYB Transcription Factor, AtMYB44” (International Journal of Molecular Sciences, 2014):

Biological target: T1, His-ABI1 (Arabidopsis, UniProt P49597 1-434)
T1 construct: ABI1, type 2C protein phosphatase (PP2C), Arabidopsis; ORF subcloned into pET28a via BamH I and Hind III sites; source: Escherichia coli, purified
T1 sequence (looked up): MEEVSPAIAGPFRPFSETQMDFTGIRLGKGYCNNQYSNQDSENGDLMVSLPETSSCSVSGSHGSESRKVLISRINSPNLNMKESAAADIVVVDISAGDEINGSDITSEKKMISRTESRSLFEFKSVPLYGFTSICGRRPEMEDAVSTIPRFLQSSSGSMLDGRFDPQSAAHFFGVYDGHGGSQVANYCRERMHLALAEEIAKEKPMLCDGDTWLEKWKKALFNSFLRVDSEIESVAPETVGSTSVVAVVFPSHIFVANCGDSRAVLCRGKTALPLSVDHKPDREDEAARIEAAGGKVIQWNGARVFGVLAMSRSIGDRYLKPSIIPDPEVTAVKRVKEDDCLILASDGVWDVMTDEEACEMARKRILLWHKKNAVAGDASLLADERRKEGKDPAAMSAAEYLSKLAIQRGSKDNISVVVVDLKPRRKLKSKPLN
Assay: pull-down; competitive: 5 μg His-RCAR1/PYL9 with 0, 5 or 25 μg His-ABI1 or 25 μg His protein on immobilized GST-AtMYB44 (5 μg); 50 mM Tris-HCl pH 7.5, 100 mM NaCl, 1 mM EDTA, 0.05% β-mercaptoethanol, 0.2% Triton X-100, 10 mM MgCl2; 4 °C, 2 h; 10 μM ABA when indicated; anti-His blot
Details: both partners purified

binding result: binds
B1: His-RCAR1/PYL9 (receptor, Arabidopsis, UniProt Q84MC7 1-187, looked up)
chain: MMDGVEGGTAMYGGLETVQYVRTHHQHLCRENQCTSALVKHIKAPLHLVWSLVRRFDQPQKYKPFVSRCTVIGDPEIGSLREVNVKSGLPATTSTERLELLDDEEHILGIKIIGGDHRLKNYSSILTVHPEIIEGRAGTMVIESFVVDVPQGNTKDETCYFVEALIRCNLKSLADVSERLASQDITQ
notes: ABA receptor RCAR1/PYL9, Arabidopsis; ORF subcloned into pET28a via EcoR I and Xho I sites; source: Escherichia coli, purified
